From the RNAGym collection of RNA variant scans (doi:10.1073/pnas.2313332121)
Fewer inactive variants are shown than the library holds.

B1: TPR 5TU (parent)
chain: GGAUCUUCUCGAUCUAACAAAAAAGACAAAUCUGCCACAAAGCUUGAGAGCAUCUUCGGAUGCAGAGGCGGCAGCCUUCGGUGGCGCGAUAGCGCCAACGUUCUCAACUAUGACACGCAAAACGCGUGCUCCGUUGAAUGGAGUUUAUCAUG

Variants of: B1
Test: polymerase ribozyme fitness, log enrichment relative to wild type (log ratio); higher = more active; in vitro selection for triplet polymerase activity
How it was run: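 Streptavidin-bead capture of gel-excised extended constructs, followed by RT-PCR, closed a single triplicate in vitro selection round. That round began by annealing PCR-built, transcribed mutant libraries of each subunit of a heterodimeric triplet polymerase ribozyme with a biotinylated primer, the partner subunit and triplets, then incubating them frozen at −7 °C. After Illumina sequencing of inputs and outputs, genotypes needed ≥10 input reads and ≥1 read per output. Fitness is the base-2 logarithm of genotype enrichment over wild-type enrichment, using inverse-variance-weighted replicate averages.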

Going from A52G C125U to A52U A73C G83C G84A G92U C123G, the “polymerase ribozyme fitness (log ratio)” value falls from -0.198 to no more than -4.2.

First: A52C G67C G83U C108U G124U
Second: U53A A89C G94A G141C
The “polymerase ribozyme fitness (log ratio)” value of the first is lower: no more than -4.2 for the first, -3.63 for the second.

Going from A52C U53A G88C C95U U145C to A52G U55A G92U, the “polymerase ribozyme fitness (log ratio)” value rises from no more than -4.2 to -0.803.

Going from A52G U56G G83A to A52C U77G C79U C87A C95U, the “polymerase ribozyme fitness (log ratio)” value falls from -2.85 to no more than -4.2.

Compared with C51U U55A C76A U90C C96G G100A U101G, A52G A150G is higher in “polymerase ribozyme fitness (log ratio)” value: no more than -4.2 for the first, -2.55 for the second.

A52G U53A C57A A73U C87G C93A C132U A150C and C51U C95G A110U G141U cannot be ordered by “polymerase ribozyme fitness (log ratio)” value: no more than -4.2 for the first, no more than -4.2 for the second.

First: A52G G58C G68A C76A C85U U90G G117U
Second: A52U C93U A119U G124U
The “polymerase ribozyme fitness (log ratio)” value of the first is lower: no more than -4.2 for the first, -3.24 for the second.

Compared with A52G C93U G94C A97C, U53A A60U C63U C75U U77G C93G A122G C149G U151A is lower in “polymerase ribozyme fitness (log ratio)” value: -3.73 for the first, no more than -4.2 for the second.

First: C51U G59C C72A
Second: A52U C69U G83C C116G
The “polymerase ribozyme fitness (log ratio)” value of the first is lower: no more than -4.2 for the first, -4.13 for the second.

Going from A52C C85U G94C G141C to C51U G141C, the “polymerase ribozyme fitness (log ratio)” value rises from -3.45 to -0.423.

First: A52G G62A C85U
Second: A52U C95A C103G C116G G133U
The “polymerase ribozyme fitness (log ratio)” value of the first is higher: -1.4 for the first, no more than -4.2 for the second.

Going from U53A A60U U61A C69G C96U to A52G C79U G92A C116G, the “polymerase ribozyme fitness (log ratio)” value falls from -3.74 to no more than -4.2.

Going from A52U G59A A98G to A52U U53G U61A A91G U130G U144G, the “polymerase ribozyme fitness (log ratio)” value falls from -1.21 to no more than -4.2.

Going from A52G G74C C96U U144G to A52C A73U, the “polymerase ribozyme fitness (log ratio)” value rises from no more than -4.2 to -3.14.

First: A52C A73G
Second: C51U G88C
The “polymerase ribozyme fitness (log ratio)” value of the first is higher: -1.89 for the first, -4.09 for the second.

Going from A52G C76U C93G to A52U U53A, the “polymerase ribozyme fitness (log ratio)” value rises from -2.91 to -1.23.

C51U G70U G88A G94U A106C and A52C G92U C103G A106C cannot be ordered by “polymerase ribozyme fitness (log ratio)” value: no more than -4.2 for the first, no more than -4.2 for the second.

First: A52U U56A A66U C93A C123G G143A U146A
Second: A52C U55A C85G C116A
The “polymerase ribozyme fitness (log ratio)” value of the first is lower: no more than -4.2 for the first, -3.78 for the second.

A52U A91U A115G C131U and A52C A98G C132G cannot be ordered by “polymerase ribozyme fitness (log ratio)” value: no more than -4.2 for the first, no more than -4.2 for the second.

First: A52G G88U
Second: A52G G71U C96U
The “polymerase ribozyme fitness (log ratio)” value of the first is lower: no more than -4.2 for the first, -4.1 for the second.

Compared with A52G C85U G86U C118G U144C C149G, A52G C57A G83U A91G C95A is higher in “polymerase ribozyme fitness (log ratio)” value: no more than -4.2 for the first, -4.15 for the second.

First: A52C U53A
Second: C51U U78G C96U
The “polymerase ribozyme fitness (log ratio)” value of the first is higher: -3.29 for the first, no more than -4.2 for the second.

Compared with A52C U148A, A52C C103A A147C is lower in “polymerase ribozyme fitness (log ratio)” value: -4.18 for the first, no more than -4.2 for the second.

C51U C95G and C51U C95U are within 0.2 log units of each other in “polymerase ribozyme fitness (log ratio)” value: -1.68 for the first, -1.69 for the second.

Going from C51U C96G U144A to A52G C57G A73U G84A, the “polymerase ribozyme fitness (log ratio)” value falls from -1.45 to -3.44.

Going from U53A A97C to A52G G81A G83A A98U, the “polymerase ribozyme fitness (log ratio)” value falls from -0.583 to -1.22.

Going from C51U G84A C96A C149U to A52C C75U A97U U109G C114A, the “polymerase ribozyme fitness (log ratio)” value falls from -2.56 to -3.53.

First: C51U G58U U77G C96A
Second: A52G G58U C87U
The “polymerase ribozyme fitness (log ratio)” value of the first is lower: -4.18 for the first, -2 for the second.

First: A52G C57A G92U
Second: A52C C93G
The “polymerase ribozyme fitness (log ratio)” value of the first is higher: -0.753 for the first, -3.65 for the second.

A52C G143C and A52G G67U A142G are within 0.2 log units of each other in “polymerase ribozyme fitness (log ratio)” value: -3.51 for the first, -3.52 for the second.

Going from A52G G141A to A52G G100U A106U, the “polymerase ribozyme fitness (log ratio)” value falls from -1.24 to no more than -4.2.

First: A52C G94A
Second: A52G C54G G67C G81A C95G
The “polymerase ribozyme fitness (log ratio)” value of the first is higher: -0.384 for the first, -3.86 for the second.

Compared with A52G A60U C85A G94U C96G, U53A A66C A91U U104G G124A G141A is lower in “polymerase ribozyme fitness (log ratio)” value: -3.93 for the first, no more than -4.2 for the second.

Compared with A52G U104G, A52C G83U is lower in “polymerase ribozyme fitness (log ratio)” value: -1.26 for the first, -2.01 for the second.

Going from A52C A89U C96G G141U to A52C C69G G84U A115C, the “polymerase ribozyme fitness (log ratio)” value falls from -1.47 to no more than -4.2.

First: A52U G83A
Second: A52C G80C
The “polymerase ribozyme fitness (log ratio)” value of the first is higher: -2.83 for the first, no more than -4.2 for the second.

First: A52U U53G U56A G65C C75U C85U U104G U127C U139A
Second: C51U C116U A121C G152U
The “polymerase ribozyme fitness (log ratio)” value of the first is lower: no more than -4.2 for the first, -3.78 for the second.

Going from A52C G62C A120G G140U to C51U U53A G65U G84U C93A C116G U135G, the “polymerase ribozyme fitness (log ratio)” value falls from -4.1 to no more than -4.2.

First: A52G G71U
Second: A52G G58U A66G G70U G92A G100A C116A U148A
The “polymerase ribozyme fitness (log ratio)” value of the first is higher: -2.58 for the first, no more than -4.2 for the second.

First: A52C U55A G74U G88U G92U C105G A107G
Second: A52G G81A
The “polymerase ribozyme fitness (log ratio)” value of the first is lower: no more than -4.2 for the first, -0.481 for the second.

First: A52C G68A G94C C99U C108G A120C G143C
Second: A52C C85A
The “polymerase ribozyme fitness (log ratio)” value of the first is lower: no more than -4.2 for the first, -3.22 for the second.

With A52C G58U G59A C85A the “polymerase ribozyme fitness (log ratio)” value was -2.15.
